The source of these data is article PMC5379935, “Crystal structure and RNA-binding properties of an Hfq homolog from the deep-branching Aquificae: conservation of the lateral RNA-binding mode” (Acta Crystallographica. Section D, Structural Biology, 2016).

For data set [1], the target named is T1, Aae Hfq (Aquifex aeolicus, UniProt O66512 1-80).
T1 sequence: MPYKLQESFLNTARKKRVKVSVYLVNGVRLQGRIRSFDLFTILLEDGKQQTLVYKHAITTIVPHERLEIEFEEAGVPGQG
Description: fluorescence polarization; no Mg2+; per hexamer; 4-parameter fit, Hill 1.3; FP: 50 mM Tris pH 8.0, 500 mM NaCl, 5 nM FAM-RNA, +/- 10 mM MgCl2, 45 min, room temperature. The note with it: protein: recombinant; tags: 6xHis removed by thrombin; residual N-terminal G-2 S-1 H0; chain copies: 6; label: 5'-FAM; single strand. (In general: Polarisation of emitted light reports the rotation of a fluorescent probe.)

The target in data set [2] is T1, Aae Hfq. Description: fluorescence polarization; 10 mM Mg2+; per hexamer; 4-parameter fit, Hill 1.7; FP: 50 mM Tris pH 8.0, 500 mM NaCl, 5 nM FAM-RNA, +/- 10 mM MgCl2, 45 min, room temperature. The note with it: protein: recombinant; tags: 6xHis removed by thrombin; residual N-terminal G-2 S-1 H0; chain copies: 6; label: 5'-FAM; single strand.
The target of data set [3] is T1, Aae Hfq. Nature of the data set: fluorescence polarization; no significant binding detected; FP: 50 mM Tris pH 8.0, 500 mM NaCl, 5 nM FAM-RNA, +/- 10 mM MgCl2, 45 min, room temperature. The note with it: protein: recombinant; tags: 6xHis removed by thrombin; residual N-terminal G-2 S-1 H0; chain copies: 6; label: FAM; single strand.
Data set [4] deals with the molecule itself. Description: SEC-MALS; Superdex 200 Increase 10/300 GL, 50 mM Tris pH 8.0, 200 mM NaCl; Aae Hfq alone; monodisperse peak.
Data set [5] deals with the molecule itself. Description: cross-linking; formaldehyde, indirect (vapor-diffusion) method, 0.6 mg/ml Hfq in 25 mM HEPES pH 8.0, 500 mM NaCl, 310 K, 40 min; read out by MALDI-TOF MS.
Data set [6] deals with T1, Aae Hfq. Nature of the data set: fluorescence polarization; no Mg2+; per hexamer; 4-parameter fit, Hill 2.2; FP: 50 mM Tris pH 8.0, 500 mM NaCl, 5 nM FAM-RNA, +/- 10 mM MgCl2, 45 min, room temperature. The settings on record: protein: recombinant; tags: 6xHis removed by thrombin; residual N-terminal G-2 S-1 H0; chain copies: 6; label: 5'-FAM; single strand.
The target in data set [7] is T1, Aae Hfq. Nature of the data set: fluorescence polarization; 10 mM Mg2+; per hexamer; 4-parameter fit, Hill 2.4; FP: 50 mM Tris pH 8.0, 500 mM NaCl, 5 nM FAM-RNA, +/- 10 mM MgCl2, 45 min, room temperature. The settings on record: protein: recombinant; tags: 6xHis removed by thrombin; residual N-terminal G-2 S-1 H0; chain copies: 6; label: 5'-FAM; single strand.

Take UUUUUU (ssRNA) [FAM-U6]: the Kd with Aae Hfq [1] came out at 21.3 nM; with Aae Hfq [2], 2.1 nM. Take CCCCCC (ssRNA) [FAM-C6]: the binding result with Aae Hfq [3] was “no binding”.

B1: Aquifex aeolicus Hfq (working construct after proteolytic removal of the 6xHis tag, 83 amino acids) (natural protein)
chain: GSHMPYKLQESFLNTARKKRVKVSVYLVNGVRLQGRIRSFDLFTILLEDGKQQTLVYKHAITTIVPHERLEIEFEEAGVPGQG
notes: three plasmid-derived residues (G-2, S-1, H0) that remain at the N-terminus after thrombin cleavage of the 6xHis tag; 83 residues, 9482.9 Da after tag removal (cleaved at G-2); Hexameric ring; two rings stack into a dodecamer in the P1 crystal, on cross-linking, and in solution with A18 RNA; also called Aae Hfq; (Hfq)6; not shown: His6, N-terminal, cleaved
Regarding B1, the “stoichiometry N” value worked out at 6 in data set [4] and 12 in data set [5]. On to AAAAAA (ssRNA) [FAM-A6], for which the binding result in the data set with Aae Hfq [3] is listed as “no binding”. As to AAAAAAAAAAAAAAAAAA (ssRNA) [FAM-A18], the Kd in the data set with Aae Hfq [6] was 17.4 nM; with Aae Hfq [7] it was 9.5 nM.

A word on the Kd: it is the free concentration of one partner at which half of the binding sites on the other are occupied at equilibrium, for simple one-to-one binding. The stoichiometry N is the number of molecules, sites or subunits per partner or assembly.
